For two molecules, Kd, koff and kon results are on record in article PMC8092709 (Journal of Virology, 2021).

The Kd is the concentration at which binding is half-saturated. A higher Kd goes with lower affinity. As a reminder, the koff is a measure of how fast the partners let go of each other. Usually kon stands for the second-order rate constant of association. Read a high kon as fast association.

Test [1] addresses human aminopeptidase N (hAPN), residues 66 to 967 (human) (UniProt P15144). The test is described as follows: SPR. For orientation: Surface plasmon resonance follows binding to a sensor surface in real time, without labels.
In test [2] the target is T1, HCoV-229E S glycoprotein ectodomain trimer (S-trimer) (HCoV-229E, UniProt P15423 16-1116).
T1 sequence: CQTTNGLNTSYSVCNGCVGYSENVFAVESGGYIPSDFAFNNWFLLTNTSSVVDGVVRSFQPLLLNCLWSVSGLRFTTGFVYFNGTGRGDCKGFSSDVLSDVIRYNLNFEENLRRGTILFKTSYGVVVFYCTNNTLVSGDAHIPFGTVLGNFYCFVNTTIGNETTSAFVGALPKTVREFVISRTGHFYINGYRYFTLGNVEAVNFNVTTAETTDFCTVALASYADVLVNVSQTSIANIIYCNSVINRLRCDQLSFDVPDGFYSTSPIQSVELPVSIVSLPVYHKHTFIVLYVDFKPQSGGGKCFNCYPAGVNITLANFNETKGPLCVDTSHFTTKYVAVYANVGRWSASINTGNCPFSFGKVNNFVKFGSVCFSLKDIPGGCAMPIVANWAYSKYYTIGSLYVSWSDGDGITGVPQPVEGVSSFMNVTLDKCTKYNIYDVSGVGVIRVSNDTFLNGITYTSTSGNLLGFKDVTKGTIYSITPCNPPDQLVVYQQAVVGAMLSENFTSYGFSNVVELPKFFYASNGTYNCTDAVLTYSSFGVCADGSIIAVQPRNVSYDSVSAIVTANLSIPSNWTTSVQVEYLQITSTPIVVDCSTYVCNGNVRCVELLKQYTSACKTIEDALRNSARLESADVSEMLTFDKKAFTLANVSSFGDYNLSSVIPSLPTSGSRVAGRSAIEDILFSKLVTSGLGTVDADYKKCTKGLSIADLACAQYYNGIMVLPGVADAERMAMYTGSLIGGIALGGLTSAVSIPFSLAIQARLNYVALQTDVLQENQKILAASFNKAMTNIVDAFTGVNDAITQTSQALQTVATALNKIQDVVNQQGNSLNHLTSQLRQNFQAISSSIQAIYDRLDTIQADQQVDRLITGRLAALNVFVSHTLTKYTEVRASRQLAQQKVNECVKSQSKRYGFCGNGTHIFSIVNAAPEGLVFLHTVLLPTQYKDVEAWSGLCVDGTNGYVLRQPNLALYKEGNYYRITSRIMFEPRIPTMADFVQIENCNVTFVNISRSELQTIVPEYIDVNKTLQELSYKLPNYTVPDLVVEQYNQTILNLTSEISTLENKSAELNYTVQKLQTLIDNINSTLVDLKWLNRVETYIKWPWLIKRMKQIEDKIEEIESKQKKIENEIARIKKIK
The test is described as follows: SPR.

With “HCoV-229E NTD-deficient S-trimer (S-trimer/ΔNTD) (from UniProt P15423 16-1116) (domain or fragment)”, in test [1], the Kd is 2.12 nM, the off-rate constant (koff) is 4.1e-05 s⁻¹ and the on-rate constant (kon) came out at 19400 M⁻¹ s⁻¹.

B1: human aminopeptidase N (hAPN), residues 66 to 967 (receptor)
chain: DQSKAWNRYRLPNTLKPDSYRVTLRPYLTPNDRGLYVFKGSSTVRFTCKEATDVIIIHSKKLNYTLSQGHRVVLRGVGGSQPPDIDKTELVEPTEYLVVHLKGSLVKDSQYEMDSEFEGELADDLAGFYRSEYMEGNVRKVVATTQMQAADARKSFPCFDEPAMKAEFNITLIHPKDLTALSNMLPKGPSTPLPEDPNWNVTEFHTTPKMSTYLLAFIVSEFDYVEKQASNGVLIRIWARPSAIAAGHGDYALNVTGPILNFFAGHYDTPYPLPKSDQIGLPDFNAGAMENWGLVTYRENSLLFDPLSSSSSNKERVVTVIAHELAHQWFGNLVTIEWWNDLWLNEGFASYVEYLGADYAEPTWNLKDLMVLNDVYRVMAVDALASSHPLSTPASEINTPAQISELFDAISYSKGASVLRMLSSFLSEDVFKQGLASYLHTFAYQNTIYLNLWDHLQEAVNNRSIQLPTTVRDIMNRWTLQMGFPVITVDTSTGTLSQEHFLLDPDSNVTRPSEFNYVWIVPITSIRDGRQQQDYWLIDVRAQNDLFSTSGNEWVLLNLNVTGYYRVNYDEENWRKIQTQLQRDHSAIPVINRAQIINDAFNLASAHKVPVTLALNNTLFLIEERQYMPWEAALSSLSYFKLMFDRSEVYGPMKNYLKKQVTPLFIHFRNNTNNWREIPENLMDQYSEVNAISTACSNGVPECEEMVSGLFKQWMENPNNNPIHPNLRSTVYCNAIAQGGEEEWDFAWEQFRNATLVNEADKLRAALACSKELWILNRYLSYTLNPDLIRKQDATSTIISITNNVIGQGLVWDFVQSNWKKLFNDYGGGSFSFSNLIQAVTRRFSTEYELQQLEQFKKDNEETGFGSGTRALEQALEKTKANIKWVKENKEVVLQWFTENSK
With B1, in test [2], the Kd amounted to 3.29 nM, the koff is 0.000121 s⁻¹ and the kon is 36700 M⁻¹ s⁻¹.
